# Test results published in the supplement of paper PMC10567573.
# B1: HDAC6 (parent)
# chain: YVHHQALLDVKNIAHQNKFGEDMP
# B2: MMP1 (parent)
# chain: YTPDLPRADVDHAIEKAFQLWSNV
# Variants of: B1
# Assay: protein stability index of a GFP-peptide fusion (GPS, HEK-293T) (PSI 1-6); higher = more stable
# Settings: c terminus: a fixed tail appended
# 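Note: lentivirally expressed fusions sorted by FACS into six bins by GFP to DsRed ratio, PSI derived from sequencing read proportions per bin multiplied by bin number.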
row,Variant,protein stability index
1,Q5D,2.08
2,A6L,1.58
3,K18S,1.49
4,H3E,2.81
5,G20K,2.14
6,K18I,2.15
7,Y1G,4.19
8,V10N,2.05
9,D9N,2.66
10,N17C,1.87
11,I13H,1.95
12,F19H,2.53
13,H4L,2.2
14,L8G,2.09
15,E21K,1.57
16,M23N,1.88
17,K18G,2.58
18,H15S,1.75
19,G20W,2.41
20,H15I,1.77
21,E21F,2.54
22,D22V,1.5
23,A14N,2.26
24,G20S,1.82
25,M23K,2.26

row,Variant,protein stability index
1,V2P,3
2,P24F,1.49
3,M23E,2.06
4,P24K,2.25
5,D22H,2.4
6,G20P,1.96
7,N12A,2
8,E21I,1.57
9,A6Q,1.86
10,N12I,2.4
11,L7E,2.88
12,Q16A,1.63
13,E21P,1.4
14,H15A,2.57
15,A6V,1.86
16,E21D,1.97
17,Y1V,3.14
18,Y1R,3.59
19,I13D,2.77
20,K11W,3.04
21,H3S,2
22,N12P,2.12
23,L7V,2.21
24,L7W,2.77
25,D22W,2.14

row,Variant,protein stability index
1,H3Y,1.69
2,F19C,1.78
3,A14L,1.9
4,L8Q,2.4
5,L8A,1.93
6,M23R,1.97
7,L7G,2.33
8,P24T,2.17
9,H4K,1.78
10,Q5S,1.76
11,N17L,1.68
12,L8H,2.72
13,D22L,2.17
14,K11S,2.74
15,F19M,2.34
16,D22A,1.67
17,A14Y,1.74
18,Q5Y,2.35
19,L8S,2.39
20,M23A,1.94
21,L8M,1.95
22,E21H,1.46
23,M23Q,1.68
24,A6D,2.22
25,Q5T,1.95

row,Variant,protein stability index
1,H4F,2.98
2,A6E,2.17
3,Y1L,3.3
4,N12D,1.67
5,A14R,2.04
6,D22P,2.21
7,F19D,2.48
8,G20Q,2.03
9,M23F,2.23
10,N12H,1.72
11,D9H,2.56
12,Q16Y,2.31
13,G20T,1.91
14,K18V,1.74
15,N12G,2.71
16,N17K,1.97
17,G20C,1.83
18,Y1P,4.1
19,D9P,4.3
20,L7N,2.4
21,L7C,1.97
22,G20R,1.56
23,A6N,1.84
24,N17Q,1.85
25,V2E,4.55

row,Variant,protein stability index
1,P24L,2.23
2,G20H,2.19
3,E21N,2
4,P24I,2.06
5,A14W,2.79
6,N17E,1.91
7,K18L,1.73
8,P24A,1.46
9,V2N,4.12
10,P24G,2.36
11,Y1E,4.05
12,N12L,1.93
13,A6R,2.07
14,K18T,2.43
15,V10S,1.84
16,Y1M,3.49
17,H4G,1.99
18,Q16S,1.87
19,N12Q,1.57
20,K18P,2.35
21,E21Y,2.15
22,V2K,4.15
23,A14T,1.82
24,A14K,2.33
25,K11H,2.21

row,Variant,protein stability index
1,A6T,1.97
2,D22R,1.73
3,D22T,1.86
4,I13R,1.96
5,H4V,1.95
6,V10T,1.86
7,P24M,1.96
8,H3V,2.46
9,V2D,4.33
10,H3G,2.03
11,H3Q,1.78
12,F19G,2.43
13,A14S,2.35
14,H15K,2.35
15,F19N,2.05
16,D22K,2.09
17,V10A,2.33
18,V2Y,2.98
19,N12E,1.66
20,P24H,1.58
21,L7I,1.83
22,M23H,1.93
23,D9M,1.76

# Variants of: B2
# Assay: as above
# Settings: c terminus: a fixed tail appended
row,Variant,protein stability index
1,W21T,3.42
2,V10W,3.04
3,H12D,2.09
4,K16H,2.06
5,Y1T,2.92
6,A13Y,1.95
7,A13H,2.27
8,E15P,1.93
9,D9L,1.3
10,P3A,1.79
11,L20H,2.38
12,Y1K,3.32
13,D4K,2.38
14,I14D,1.81
15,D9H,2.51
16,R7A,2.3
17,D11M,2.12
18,P3Q,2.96
19,A13C,1.93
20,D11F,2.12
21,V24G,2.37
22,V10M,2.56
23,K16P,1.83
24,F18I,2.41

row,Variant,protein stability index
1,D4R,2.52
2,N23S,2.28
3,V10Q,1.81
4,D4E,1.4
5,P3L,1.62
6,D9R,1.16
7,N23D,1.86
8,T2S,1.95
9,L5S,2.05
10,V24Q,2.14
11,P6G,2.17
12,S22D,2.59
13,Q19E,1.98
14,D11C,2.17
15,E15I,2.53
16,A8W,1.87
17,A8H,1.75
18,A13G,3.15
19,D9Y,2.35
20,P3D,3.37
21,P6W,2.06
22,T2I,2.52
23,L20W,1.1
24,I14M,1.7

row,Variant,protein stability index
1,P6K,2.12
2,D9P,1.54
3,A17E,1.84
4,P3I,1.92
5,A17M,2
6,H12A,2.46
7,K16Q,1.76
8,H12M,1.63
9,D9K,2.44
10,A17G,1.93
11,S22A,1.78
12,R7D,1.79
13,Y1N,3.18
14,K16V,2.28
15,N23A,2.05
16,L5Q,2.07
17,L20I,2.16
18,H12W,2.21
19,P3S,2.36
20,K16E,1.76
21,L20Y,1.78
22,Y1A,4.18
23,I14K,2.14
24,I14N,1.88

row,Variant,protein stability index
1,L5G,1.32
2,N23K,2.28
3,V10F,1.79
4,D9G,2.49
5,P3C,1.54
6,D11G,3.41
7,F18E,2.29
8,P3G,1.62
9,L5A,2.11
10,P3W,2.87
11,W21Y,2.5
12,I14Q,2.3
13,D9E,1.75
14,E15A,1.46
15,V10Y,2.71
16,I14H,1.62
17,L20C,1.84
18,Y1M,3.16
19,V10H,1.58
20,P3T,1.84
21,D9T,1.82
22,D4A,1.75
23,Y1L,2.87
24,I14W,1.46

row,Variant,protein stability index
1,R7W,1.79
2,D9N,1.59
3,N23V,2.23
4,E15G,2.54
5,A8N,1.41
6,L5P,1.81
7,A13I,2.27
8,Q19V,2.66
9,A17T,2.54
10,N23G,2.12
11,W21Q,2.88
12,A13S,1.89
13,W21A,3.05
14,V24A,2.06
15,P6N,1.8
16,P3R,2.49
17,Y1H,3.43
18,D4Q,2.62
19,V24R,1.53
20,F18N,1.94
21,K16T,2.03
22,D11L,1.96
23,L20E,3.55
24,P6L,1.32

row,Variant,protein stability index
1,F18Q,1.73
2,T2C,1.93
3,T2H,2.11
4,V24H,1.71
5,L5W,2.17
6,R7Q,1.92
7,H12T,1.82
8,K16R,1.8
9,A17R,1.63
10,D11N,1.63
11,E15Q,1.46
12,E15T,2.46
13,D4F,2.54
14,Q19G,1.75
15,L5T,2.02
16,R7P,1.81
17,K16I,2.71
18,W21E,3.74
19,D4L,3.1
20,F18M,2.04
21,L20P,1.88
22,D11I,1.94
23,Q19L,1.05
24,R7L,1.42

row,Variant,protein stability index
1,D11H,2.07
2,Q19H,1.97
3,F18L,1.46
4,Q19K,1.86
5,H12E,2.04
6,Q19D,2.5
7,D4W,1.94
8,Q19F,2.43
9,E15W,1.83
10,R7C,2.01
11,V24K,2.5
12,I14P,2.14
13,A13T,3
14,L20G,1.9
15,Y1S,3.52
16,A13K,2.1
17,K16C,2.02
18,P6E,1.83
19,W21I,2.67
20,N23L,2.1
21,F18R,1.66
22,R7V,2.12
23,Q19C,3.82
24,D9Q,2.5

row,Variant,protein stability index
1,S22M,1.69
2,Y1V,3.19
3,N23C,1.29
4,Y1C,2.33
5,R7N,1.64
6,E15N,1.97
7,P3V,2.13
8,V24W,2.39
9,E15S,2.19
10,D11T,2.62
11,L5V,2.89
12,K16D,1.71
13,D9A,1.38
14,F18C,1.69
15,D9S,2.55
16,E15M,2.46
17,W21F,2.13
18,F18S,1.67
